In patent US20200031888:

Target: C3b (Comptech), P01024
Sequence (P01024 whole entry, looked up): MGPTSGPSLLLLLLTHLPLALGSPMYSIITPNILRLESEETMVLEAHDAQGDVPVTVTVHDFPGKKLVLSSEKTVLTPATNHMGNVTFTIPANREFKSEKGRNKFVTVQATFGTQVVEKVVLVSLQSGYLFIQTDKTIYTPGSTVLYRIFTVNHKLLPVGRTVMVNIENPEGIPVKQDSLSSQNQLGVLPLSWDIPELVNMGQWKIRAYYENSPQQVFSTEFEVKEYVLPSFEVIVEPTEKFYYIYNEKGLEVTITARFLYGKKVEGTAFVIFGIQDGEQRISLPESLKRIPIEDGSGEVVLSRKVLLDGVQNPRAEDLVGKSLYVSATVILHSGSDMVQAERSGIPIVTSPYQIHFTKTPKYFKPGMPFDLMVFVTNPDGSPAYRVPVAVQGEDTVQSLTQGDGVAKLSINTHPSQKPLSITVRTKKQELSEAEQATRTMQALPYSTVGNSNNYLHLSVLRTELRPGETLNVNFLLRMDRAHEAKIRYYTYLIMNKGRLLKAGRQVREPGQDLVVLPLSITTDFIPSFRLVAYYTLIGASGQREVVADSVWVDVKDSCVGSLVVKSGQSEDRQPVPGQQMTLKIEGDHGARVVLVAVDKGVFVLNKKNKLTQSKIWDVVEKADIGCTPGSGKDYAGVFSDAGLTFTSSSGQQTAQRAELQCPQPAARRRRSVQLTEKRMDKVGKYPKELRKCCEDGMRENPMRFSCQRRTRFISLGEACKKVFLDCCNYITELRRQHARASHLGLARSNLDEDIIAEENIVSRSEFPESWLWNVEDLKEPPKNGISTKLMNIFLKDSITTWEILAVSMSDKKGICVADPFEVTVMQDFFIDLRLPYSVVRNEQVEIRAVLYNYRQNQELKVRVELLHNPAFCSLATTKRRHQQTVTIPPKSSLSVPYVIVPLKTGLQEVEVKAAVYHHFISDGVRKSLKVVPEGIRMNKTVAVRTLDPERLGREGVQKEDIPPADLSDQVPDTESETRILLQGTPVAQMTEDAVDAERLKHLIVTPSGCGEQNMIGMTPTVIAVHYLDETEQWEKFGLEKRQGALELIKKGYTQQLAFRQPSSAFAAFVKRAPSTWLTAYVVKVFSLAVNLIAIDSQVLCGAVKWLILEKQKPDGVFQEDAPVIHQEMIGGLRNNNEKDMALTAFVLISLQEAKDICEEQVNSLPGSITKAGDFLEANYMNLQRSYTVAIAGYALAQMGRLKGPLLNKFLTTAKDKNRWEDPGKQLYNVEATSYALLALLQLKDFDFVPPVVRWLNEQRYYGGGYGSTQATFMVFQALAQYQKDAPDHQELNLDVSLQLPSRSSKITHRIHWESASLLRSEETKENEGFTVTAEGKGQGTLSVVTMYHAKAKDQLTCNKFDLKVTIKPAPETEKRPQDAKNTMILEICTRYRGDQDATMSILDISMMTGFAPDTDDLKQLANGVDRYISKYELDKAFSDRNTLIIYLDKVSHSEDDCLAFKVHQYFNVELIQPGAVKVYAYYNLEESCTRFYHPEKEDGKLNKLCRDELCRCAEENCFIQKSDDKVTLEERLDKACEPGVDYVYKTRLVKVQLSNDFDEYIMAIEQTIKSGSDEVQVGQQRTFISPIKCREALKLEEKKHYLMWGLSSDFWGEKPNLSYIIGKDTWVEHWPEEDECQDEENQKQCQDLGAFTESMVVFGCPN

B1: recombinant mature Complement Factor I made by in vitro furin cleavage of pro-rCFI (protein)
chain 1: KVTYTSQEDLVEKKCLAKKYTHLSCDKVFCQPWQRCIEGTCVCKLPYQCPKNGTAVCATNRRSFPTYCQQKSLECLHPGTKFLNNGTCTAEGKFSVSLKHGNTDSEGIVEVKLVDQDKTMFICKSSWSMREANVACLDLGFQQGADTQRRFKLSDLSINSTECLHVHCRGLETSLAECTFTKRRTMGYQDFADVVCYTQKADSPMDDFFQCVNGKYISQMKACDGINDCGDQSDELCCKACQGKGFHCKSGVCIPSQYQCNGEVDCITGEDEVGCAGFASVAQEETEILTADMDAERRRIKSLLPKLSCGVKNRMHI
chain 2: IVGGKRAQLGDLPWQVAIKDASGITCGGIYIGGCWILTAAHCLRASKTHRYQIWTTVVDWIHPDLKRIVIEYVDRIIFHENYNAGTYQNDIALIEMKKDGNKKDCELPRSIPACVPWSPYLFQPNDTCIVSGWGREKDNERVFSLQWGEVKLISNCSKFYGNRFYEKEMECAGTYDGSIDACKGDSGGPLVCMDANNVTYVWGVVSWGENCGKPEFPGVYTKVANYFDWISYHVGRPFISQYNV
  C3b inactivation (cofactor) assay with CFH, western blot of alpha1 and alpha2 bands: lane 8 which corresponds to a sample containing the in vitro cleaved mature rCFI, is the only sample containing bands that correspond to the α1 and α2 chains
  C3b inactivation assay, second western blot: The activity of the in vitro cleaved rCFI can be seen to be comparable to sCFI

B2: recombinant precursor Complement Factor I (pro-rCFI), His-tagged, expressed in CHO cells (protein)
chain: KVTYTSQEDLVEKKCLAKKYTHLSCDKVFCQPWQRCIEGTCVCKLPYQCPKNGTAVCATNRRSFPTYCQQKSLECLHPGTKFLNNGTCTAEGKFSVSLKHGNTDSEGIVEVKLVDQDKTMFICKSSWSMREANVACLDLGFQQGADTQRRFKLSDLSINSTECLHVHCRGLETSLAECTFTKRRTMGYQDFADVVCYTQKADSPMDDFFQCVNGKYISQMKACDGINDCGDQSDELCCKACQGKGFHCKSGVCIPSQYQCNGEVDCITGEDEVGCAGFASVTQEETEILTADMDAERRRIKSLLPKLSCGVKNRMHIRRKRIVGGKRAQLGDLPWQVAIKDASGITCGGIYIGGCWILTAAHCLRASKTHRYQIWTTVVDWIHPDLKRIVIEYVDRIIFHENYNAGTYQNDIALIEMKKDGNKKDCELPRSIPACVPWSPYLFQPNDTCIVSGWGREKDNERVFSLQWGEVKLISNCSKFYGNRFYEKEMECAGTYDGSIDACKGDSGGPLVCMDANNVTYVWGVVSWGENCGKPEFPGVYTKVANYFDWISYHVGRPFISQYNV
  C3b cofactor assay, western blot: only cleaved FI has activity, and Pro-FI is inactive

B3: serum CFI (Comptech) (protein)
chain: B2 chain
  C3b inactivation assay, positive control: iC3b cleaved by incubation with mature sCFI
